Results published in patent publication US7507555B2, “Probe for detecting and quantifying lipid second messenger and method of detecting and quantifying lipid second messenger using the same” (Japan Science and Technology Agency, priority 2003, dated 2009).

How the values were obtained:
[1] = tested on: clathrin-mediated endocytosis of PDGFR; assay: Effect of DynK44A expression on PIP3 increase in CHO-PDGFR cells; assay type: cell-based, Chinese hamster
Experimental: To explore the molecular mechanism, which underlies the PIP3 increase in the endomembranes, the effect on the PIP3 increase of a dominant-negative mutant of dynamin (DynK44A), in which the lysine 44 is substituted by an alanine, was assessed.
The dynamin is a guanosine triphosphatase (GTPase) that controls the clathrin-mediated endocytosis (Qualmann, B., Kessels, M. M. and Kelly, R. B. (2000) J. Cell Biol., 150, F111-F116) of receptor tyrosine kinases, including PDGFR. DynK44A lacks the GTPase activity and inhibits a clathrin-mediated endocytosis of PDGFR.
The DynK44A was expressed in CHO-PDCFR cells by adenovirus-mediated gene transfer, the cells were stimulated with PDGF (50 ng/mL) and time course of CFP/YFP in endomembranes was measured as shown in FIG. 11. […] On the other hand, in the plasma membrane, the FRET response of Fllip-pm was immediately observed upon PDGF stimulation even in the presence of the DynK44A expression, as observed in the absence of the DynK44A expression (FIG. 12).

[2] = tested on: PDGFR; assay: Effect of PTP1B overexpression on PDGF-stimulated PIP3 increase in CHO-PDGFR cells; assay type: cell-based, Chinese hamster; settings: PTP1B overexpressed
Text: For further dissecting the PIP3 dynamics in the endomembranes, protein tyrosine phosphatase-1B (PTP1B) was overexpressed in CHO-PDGFR cells by adenovirus-mediated gene transfer. The PTP1B is localized exclusively on the cytoplasmic surface of the ER (Frangioni, J. V., Beaham, P. H., Shifrin, V., Jost, C. A. and Neel, B. G. (1992) Cell, 68, 545-560). It has recently been reported that upon ligand stimulations, receptor tyrosine kinases, including PDGFR, are dephosphorylated and inactivated by the PTP1B on the cytoplasmic surface of the ER after the receptors activated at the cell surface were internalized by endocytosis (Haj, F. G., Verveer, P. J., Squire, A., Neel, B. G. and Bastiaens, P. I. H. (2002), Science, 295, 1708-1711).
The inventors expected the overexpressed PTP1B to selectively dephosphorylate the endocytosed PDGFR and to inhibit the recruitment and activation of PI3K by the PDGFR on the cytoplasmic surface of ER, without affecting the PDCFR in the plasma membrane.

Row | Molecule | PIP3 increase in the endomembranes by insulin and epidermal growth factor ([1]; DynK44A overexpression) | PDGF-stimulated PIP3 increase in the endomembranes ([1]; overexpression of DynK44A, PDGF 50 ng/mL) | PDGF-stimulated PIP3 increase in the plasma membrane ([1]; overexpression of DynK44A, PDGF 50 ng/mL, Fllip-pm) | PDGF-stimulated PIP3 increase in endomembranes ([2]; Fllip-em, PDGF 50 ng/mL) | PIP3 increase in the plasma membrane upon PDGF stimulation ([2]; monitored with Fllip-pm)
1 | DynK44A: dominant-negative mutant of dynamin in which the lysine 44 is substituted by an alanine (protein, UniProt Q05193 1-864, looked up, variant K44A) Dynamin-1: MGNRGMEDLIPLVNRLQDAFSAIGQNADLDLPQIAVVGGQSAGASSVLENFVGRDFLPRGSGIVTRRPLVLQLVNATTEYAEFLHCKGKKFTDFEEVRLEIEAETDRVTGTNKGISPVPINLRVYSPHVLNLTLVDLPGMTKVPVGDQPPDIEFQIRDMLMQFVTKENCLILAVSPANSDLANSDALKVAKEVDPQGQRTIGVITKLDLMDEGTDARDVLENKLLPLRRGYIGVVNRSQKDIDGKKDITAALAAERKFFLSHPSYRHLADRMGTPYLQKVLNQQLTNHIRDTLPGLRNKLQSQLLSIEKEVEEYKNFRPDDPARKTKALLQMVQQFAVDFEKRIEGSGDQIDTYELSGGARINRIFHERFPFELVKMEFDEKELRREISYAIKNIHGIRTGLFTPDMAFETIVKKQVKKIREPCLKCVDMVISELISTVRQCTKKLQQYPRLREEMERIVTTHIREREGRTKEQVMLLIDIELAYMNTNHEDFIGFANAQQRSNQMNKKKTSGNQDEILVIRKGWLTINNIGIMKGGSKEYWFVLTAENLSWYKDDEEKEKKYMLSVDNLKLRDVEKGFMSSKHIFALFNTEQRNVYKDYRQLELACETQEEVDSWKASFLRAGVYPERVGDKEKASETEENGSDSFMHSMDPQLERQVETIRNLVDSYMAIVNKTVRDLMPKTIMHLMINNTKEFIFSELLANLYSCGDQNTLMEESAEQAQRRDEMLRMYHALKEALSIIGDINTTTVSTPMPPPVDDSWLQVQSVPAGRRSPTSSPTPQRRAPAVPPARPGSRGPAPGPPPAGSALGGAPPVPSRPGASPDPFGPPPQVPSRPNRAPPGVPSRSGQASPSRPESPRPPFDL | inhibited | completely inhibited | not affected |  | 
2 | PTP1B: protein tyrosine phosphatase-1B, overexpressed by adenovirus-mediated gene transfer (protein, UniProt P18031 1-435, looked up) Tyrosine-protein phosphatase …: MEMEKEFEQIDKSGSWAAIYQDIRHEASDFPCRVAKLPKNKNRNRYRDVSPFDHSRIKLHQEDNDYINASLIKMEEAQRSYILTQGPLPNTCGHFWEMVWEQKSRGVVMLNRVMEKGSLKCAQYWPQKEEKEMIFEDTNLKLTLISEDIKSYYTVRQLELENLTTQETREILHFHYTTWPDFGVPESPASFLNFLFKVRESGSLSPEHGPVVVHCSAGIGRSGTFCLADTCLLLMDKRKDPSSVDIKKVLLEMRKFRMGLIQTADQLRFSYLAVIEGAKFIMGDSSVQDQWKELSHEDLEPPPEHIPPPPRPPKRILEPHNGKCREFFPNHQWVKEETQEDKDCPIKEEKGSPLNAAPYGIESMSQDTEVRSRVVGGSLRGAQAASPAKGEPSLPEKDEDHALSYWKPFLVNMCVATVLTAGAYLCYRFLFNSNT |  |  |  | completely lost | not affected
